13 molecules from patent US8691944 (RESEARCH FOUNDATION FOR THE STATE UNIVERSITY OF NEW YORK, dated 2014) can be followed below.

First the molecules themselves.
B1: peptide 1 (QPSHISKYILRWRPKNSVGRWKEAT) (peptide)
peptide: QPSHISKYILRWRPKNSVGRWKEAT
notes: Synthetic peptide; also called FN634-658
B2: vascular endothelial growth factor A (VEGF-A) (ligand, UniProt P15692-4 27-191, looked up)
chain: APMAEGGGQNHHEVVKFMDVYQRSYCHPIETLVDIFQEYPDEIEYIFKPSCVPLMRCGGCCNDEGLECVPTEESNITMQIMRIKPHQGQHIGEMSFLQHNKCECRPKKDRARQENPCGPCSERRKHLFVQDPQTCKCSCKNTDSRCKARQLELNERTCRCDKPRR
B3: platelet-derived growth factor-BB (PDGF-BB) (ligand, UniProt P01127 82-190, looked up)
chain: SLGSLTIAEPAMIAECKTRTEVFEISRRLIDRTNANFLVWPPCVEVQRCSGCCNNRNVQCRPTQVQLRPVQVRKIEIVRKKPIFKKATVTLEDHLACKCETVAAARPVT
notes: Two B chains by its name BB
B4: EGF (ligand, UniProt P01133 971-1023, looked up)
chain: NSDSECPLSHDGYCLHDGVCMYIEALDKYACNCVVGYIGERCQYRDLKWWELR

In assay [1] the target is B3. Put plainly: peptide binding assay.
Assay [2] addresses transforming growth factor-β1 (TGF-β1) (UniProt P01137 279-390). Put plainly: equilibrium binding.
In assay [3] the target is B3. Put plainly: equilibrium binding.
The assay “EGF” concerns the target B4. Put plainly: binding assay, method not restated.
The target of another assay is TGF-α (UniProt P01135 40-89). Put plainly: binding assay, method not restated.
Sequence of TGF-α (P01135 40-89 limits assumed): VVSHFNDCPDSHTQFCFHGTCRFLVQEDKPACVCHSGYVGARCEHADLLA
The target of the next assay is FGF-1 (UniProt P05230 16-155, limits assumed). Put plainly: binding assay, method not restated.
Sequence of FGF-1 (P05230 16-155 limits assumed): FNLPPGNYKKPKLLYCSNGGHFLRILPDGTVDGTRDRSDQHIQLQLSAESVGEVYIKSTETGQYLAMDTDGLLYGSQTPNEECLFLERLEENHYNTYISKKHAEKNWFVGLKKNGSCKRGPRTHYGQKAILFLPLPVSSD
Assay [4] concerns the target B3. Put plainly: binding assay, method not restated.
The target in assay [5] is T1, FNIII12-V15 (HV), composite heparinII-binding and variably-spliced IIICS domains of fibronectin (human, UniProt P02751 1812-2288).
T1 construct: domain: FNIII12-V15; Recombinant domain made in E. coli; Some constructs carried GST at the C-terminus
T1 sequence (P02751 other isoform, or with tags, fused parts or gaps limits assumed): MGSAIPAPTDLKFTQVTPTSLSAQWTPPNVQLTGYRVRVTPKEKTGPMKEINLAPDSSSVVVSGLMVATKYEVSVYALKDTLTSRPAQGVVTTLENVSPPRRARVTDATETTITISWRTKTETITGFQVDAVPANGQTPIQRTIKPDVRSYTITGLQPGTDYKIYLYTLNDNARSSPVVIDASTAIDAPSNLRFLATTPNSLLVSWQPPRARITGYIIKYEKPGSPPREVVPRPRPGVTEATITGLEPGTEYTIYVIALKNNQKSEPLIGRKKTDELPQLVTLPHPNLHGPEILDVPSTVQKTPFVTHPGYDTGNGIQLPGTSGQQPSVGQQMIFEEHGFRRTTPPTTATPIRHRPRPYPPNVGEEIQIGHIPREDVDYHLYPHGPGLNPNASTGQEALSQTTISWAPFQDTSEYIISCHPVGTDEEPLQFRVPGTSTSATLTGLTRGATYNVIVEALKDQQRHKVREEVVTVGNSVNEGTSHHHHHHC
Put plainly: plasmon resonance.

The target of assay [6] is T2, 70 kDa amino terminus of FN (FN70) (UniProt P02751 32-608, limits assumed).
T2 construct: domain: 70 kDa amino terminus of FN (FN70); also called amino-terminal end of FN
T2 sequence (P02751 32-608 limits assumed): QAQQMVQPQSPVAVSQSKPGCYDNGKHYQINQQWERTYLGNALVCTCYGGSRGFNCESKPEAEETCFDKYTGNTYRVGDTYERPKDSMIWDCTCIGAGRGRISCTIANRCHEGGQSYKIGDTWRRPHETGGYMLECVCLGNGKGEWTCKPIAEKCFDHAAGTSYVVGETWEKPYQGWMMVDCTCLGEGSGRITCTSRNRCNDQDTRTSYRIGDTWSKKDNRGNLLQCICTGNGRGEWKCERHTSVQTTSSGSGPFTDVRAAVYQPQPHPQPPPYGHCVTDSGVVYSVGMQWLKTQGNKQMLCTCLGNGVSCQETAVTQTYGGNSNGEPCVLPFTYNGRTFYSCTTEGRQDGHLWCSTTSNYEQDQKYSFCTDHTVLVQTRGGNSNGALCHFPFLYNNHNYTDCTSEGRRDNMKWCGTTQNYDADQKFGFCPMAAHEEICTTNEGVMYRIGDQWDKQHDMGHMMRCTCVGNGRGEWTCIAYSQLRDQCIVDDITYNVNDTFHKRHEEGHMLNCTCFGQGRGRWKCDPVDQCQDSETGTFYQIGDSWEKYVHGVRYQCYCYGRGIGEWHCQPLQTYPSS
Put plainly: binding assay, method not restated.

Assay [7] addresses T3, FNIII8-11 (C), central cell-binding domain of fibronectin containing RGD (human, UniProt P02751 1357-1721).
T3 construct: domain: FNIII8-11; Recombinant domain
Put plainly: binding assay, method not restated.

The target in a further assay is T4, FNIII1-11 (human, UniProt P02751-1 610-1630).
T4 construct: domain: FNIII1-11; Recombinant domain
T4 sequence (P02751 other isoform, or with tags, fused parts or gaps limits assumed): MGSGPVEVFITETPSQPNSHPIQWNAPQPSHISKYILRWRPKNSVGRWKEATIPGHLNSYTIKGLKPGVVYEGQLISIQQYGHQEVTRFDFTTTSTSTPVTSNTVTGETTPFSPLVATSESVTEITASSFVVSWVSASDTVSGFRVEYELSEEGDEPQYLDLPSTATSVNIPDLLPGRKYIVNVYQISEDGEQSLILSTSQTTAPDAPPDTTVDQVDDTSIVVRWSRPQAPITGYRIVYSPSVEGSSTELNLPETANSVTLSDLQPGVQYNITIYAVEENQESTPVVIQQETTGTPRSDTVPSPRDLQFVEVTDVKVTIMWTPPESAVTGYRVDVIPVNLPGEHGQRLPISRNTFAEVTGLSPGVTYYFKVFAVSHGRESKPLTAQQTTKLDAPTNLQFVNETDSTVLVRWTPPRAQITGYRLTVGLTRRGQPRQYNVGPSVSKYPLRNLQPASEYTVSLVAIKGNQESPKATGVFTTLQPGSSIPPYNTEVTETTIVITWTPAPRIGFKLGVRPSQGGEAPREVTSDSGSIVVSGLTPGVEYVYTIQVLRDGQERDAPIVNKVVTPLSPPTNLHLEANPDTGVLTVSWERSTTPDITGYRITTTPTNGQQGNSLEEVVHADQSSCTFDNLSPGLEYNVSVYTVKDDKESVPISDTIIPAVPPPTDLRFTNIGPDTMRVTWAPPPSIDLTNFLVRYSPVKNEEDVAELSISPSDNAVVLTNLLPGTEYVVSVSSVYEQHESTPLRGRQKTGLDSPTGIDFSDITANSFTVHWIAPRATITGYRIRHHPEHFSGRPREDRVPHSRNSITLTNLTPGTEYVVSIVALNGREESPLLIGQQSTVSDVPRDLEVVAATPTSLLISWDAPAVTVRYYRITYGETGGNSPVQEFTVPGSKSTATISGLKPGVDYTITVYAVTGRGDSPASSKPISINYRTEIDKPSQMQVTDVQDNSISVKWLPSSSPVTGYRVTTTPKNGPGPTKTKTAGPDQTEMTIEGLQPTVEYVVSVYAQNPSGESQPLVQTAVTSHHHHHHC
Put plainly: binding assay, method not restated.

Assay [8] has as its target T5, FNIII1-7 (UniProt P02751 610-1265, limits assumed).
T5 construct: domain: FNIII1-7
Put plainly: equilibrium binding.

For assay [9], the target named is T6, FNIII1-2 (human, UniProt P02751 610-809, limits assumed).
T6 construct: domain: FNIII1-2; Recombinant domain
T6 sequence (P02751 other isoform, or with tags, fused parts or gaps limits assumed): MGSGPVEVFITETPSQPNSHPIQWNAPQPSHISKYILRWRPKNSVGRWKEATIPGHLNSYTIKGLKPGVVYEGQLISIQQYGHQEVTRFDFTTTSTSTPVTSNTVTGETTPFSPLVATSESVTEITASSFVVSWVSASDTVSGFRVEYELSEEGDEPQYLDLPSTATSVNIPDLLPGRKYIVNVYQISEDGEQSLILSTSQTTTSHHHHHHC
Put plainly: equilibrium binding.

In assay [10] the target is T7, FNIII3-6 (human, UniProt P02751 810-1172, limits assumed).
T7 construct: domain: FNIII3-6; Recombinant domain
T7 sequence (P02751 other isoform, or with tags, fused parts or gaps limits assumed): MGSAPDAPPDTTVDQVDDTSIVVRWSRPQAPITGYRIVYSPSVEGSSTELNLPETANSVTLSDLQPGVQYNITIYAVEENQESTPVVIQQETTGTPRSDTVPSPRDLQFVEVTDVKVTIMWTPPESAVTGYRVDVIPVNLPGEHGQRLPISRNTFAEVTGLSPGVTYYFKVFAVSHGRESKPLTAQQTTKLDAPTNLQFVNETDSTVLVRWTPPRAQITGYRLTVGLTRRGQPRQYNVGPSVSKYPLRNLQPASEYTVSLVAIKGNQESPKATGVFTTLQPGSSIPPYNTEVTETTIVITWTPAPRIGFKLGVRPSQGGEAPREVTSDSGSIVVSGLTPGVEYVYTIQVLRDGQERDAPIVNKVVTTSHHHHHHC
Put plainly: equilibrium binding.

The target in assay [11] is T1, FNIII12-V15 (HV), composite …. Put plainly: equilibrium binding.
The target of assay [12] is T8, FNIII12-15 (H), heparinII-binding domain of fibronectin (human, UniProt P02751-10 1631-1987).
T8 construct: domain: FNIII12-15; Recombinant domain; also called HepII domain
T8 sequence (P02751 other isoform, or with tags, fused parts or gaps limits assumed): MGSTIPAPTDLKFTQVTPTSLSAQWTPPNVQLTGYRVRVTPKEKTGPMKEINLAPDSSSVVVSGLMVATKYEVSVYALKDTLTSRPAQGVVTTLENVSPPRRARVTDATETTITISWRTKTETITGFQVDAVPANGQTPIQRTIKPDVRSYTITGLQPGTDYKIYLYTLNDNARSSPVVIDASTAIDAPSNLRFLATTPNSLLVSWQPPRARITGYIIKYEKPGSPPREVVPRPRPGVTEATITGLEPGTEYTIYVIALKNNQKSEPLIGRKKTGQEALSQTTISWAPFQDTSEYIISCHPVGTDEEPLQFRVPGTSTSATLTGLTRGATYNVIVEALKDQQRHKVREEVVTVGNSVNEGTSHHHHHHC
Put plainly: equilibrium binding.

The target of assay [13] is T9, FNIII12-14 (human, UniProt P02751 1812-2082).
T9 construct: domain: FNIII12-14; Recombinant domain
T9 sequence (P02751 other isoform, or with tags, fused parts or gaps limits assumed): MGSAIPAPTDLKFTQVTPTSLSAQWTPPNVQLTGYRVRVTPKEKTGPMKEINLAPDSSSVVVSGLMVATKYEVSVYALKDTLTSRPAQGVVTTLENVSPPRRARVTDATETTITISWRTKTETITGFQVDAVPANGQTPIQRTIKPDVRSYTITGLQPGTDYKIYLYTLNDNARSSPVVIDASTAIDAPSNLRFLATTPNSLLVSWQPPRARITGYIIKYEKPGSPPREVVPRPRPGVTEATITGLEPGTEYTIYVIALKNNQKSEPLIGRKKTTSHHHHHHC
Put plainly: equilibrium binding.

In another assay the target is T10, FNIII12-13 (UniProt P02751 1812-1992).
T10 construct: domain: FNIII12-13
Put plainly: equilibrium binding.

For assay [14], the target named is T6, FNIII1-2. Put plainly: surface plasmon resonance. For orientation: In SPR one partner is held on a chip, and binding of the other changes the refractive index at the surface.
Assay [15] deals with T5, FNIII1-7. Put plainly: plasmon surface resonance, kinetic binding.
Assay [16] deals with T1, FNIII12-V15 (HV), composite …. Put plainly: plasmon surface resonance, kinetic binding.
Assay [17] concerns the target T2, 70 kDa amino terminus of FN (FN70). Put plainly: equilibrium binding, confirmed by surface plasmon resonance.
Assay [18] concerns the target T11, intact fibronectin (UniProt P02751-8 32-2296, limits assumed).
T11 construct: also called FN; intact FN
Put plainly: radiolabeled GF binding to intact FN, non linear regression.

Assay [19] deals with T9, FNIII12-14. Put plainly: binding assay, method not restated (plasmon resonance in the sentence before).
Assay [20] concerns the target T5, FNIII1-7. Put plainly: equilibrium and kinetic binding.
The target of assay [21] is T2, 70 kDa amino terminus of FN (FN70). Put plainly: equilibrium and kinetic binding.
The target in a further assay is T12, FNIII1 (human, UniProt P02751 610-702, limits assumed).
T12 construct: domain: FNIII1; Recombinant domain; also called first type III repeat of FN
T12 sequence (P02751 other isoform, or with tags, fused parts or gaps limits assumed): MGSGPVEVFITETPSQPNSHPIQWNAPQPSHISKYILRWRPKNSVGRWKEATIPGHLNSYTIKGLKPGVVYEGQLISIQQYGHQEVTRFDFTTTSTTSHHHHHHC
Put plainly: binding assay, method not restated.

Assay [22] concerns the target T7, FNIII3-6. Put plainly: binding assay, method not restated.
For assay [23], the target named is T8, FNIII12-15 (H), heparinII-binding …. Put plainly: binding assay, method not restated.
Assay [24] concerns the target T9, FNIII12-14. Put plainly: binding assay, method not restated.
Assay [25] addresses T11, intact fibronectin. Put plainly: equilibrium binding to FN adsorbed to a surface or coupled to agarose beads.

T5 sequence (P02751 610-1265 limits assumed): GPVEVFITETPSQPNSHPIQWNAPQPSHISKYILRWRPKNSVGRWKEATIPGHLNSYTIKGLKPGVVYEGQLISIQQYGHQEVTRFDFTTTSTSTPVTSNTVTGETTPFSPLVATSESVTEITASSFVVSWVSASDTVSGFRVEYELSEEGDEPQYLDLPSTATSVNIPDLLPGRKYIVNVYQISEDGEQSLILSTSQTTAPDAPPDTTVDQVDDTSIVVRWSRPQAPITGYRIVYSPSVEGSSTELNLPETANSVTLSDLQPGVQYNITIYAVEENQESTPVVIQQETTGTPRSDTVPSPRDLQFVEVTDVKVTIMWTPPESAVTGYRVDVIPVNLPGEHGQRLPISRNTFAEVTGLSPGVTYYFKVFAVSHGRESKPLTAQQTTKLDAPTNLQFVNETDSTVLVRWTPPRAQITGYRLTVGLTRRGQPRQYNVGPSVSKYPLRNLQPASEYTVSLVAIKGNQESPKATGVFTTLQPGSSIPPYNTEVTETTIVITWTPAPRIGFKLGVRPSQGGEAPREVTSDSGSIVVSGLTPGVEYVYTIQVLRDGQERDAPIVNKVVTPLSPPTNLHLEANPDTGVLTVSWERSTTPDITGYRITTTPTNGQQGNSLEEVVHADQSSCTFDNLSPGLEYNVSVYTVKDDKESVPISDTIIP
Sequence of transforming growth factor-β1 (TGF-β1) (P01137 279-390 limits assumed): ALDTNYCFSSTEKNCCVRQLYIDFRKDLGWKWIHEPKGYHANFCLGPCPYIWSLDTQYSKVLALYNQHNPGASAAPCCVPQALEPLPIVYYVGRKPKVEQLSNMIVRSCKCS
T3 sequence (P02751 other isoform, or with tags, fused parts or gaps limits assumed): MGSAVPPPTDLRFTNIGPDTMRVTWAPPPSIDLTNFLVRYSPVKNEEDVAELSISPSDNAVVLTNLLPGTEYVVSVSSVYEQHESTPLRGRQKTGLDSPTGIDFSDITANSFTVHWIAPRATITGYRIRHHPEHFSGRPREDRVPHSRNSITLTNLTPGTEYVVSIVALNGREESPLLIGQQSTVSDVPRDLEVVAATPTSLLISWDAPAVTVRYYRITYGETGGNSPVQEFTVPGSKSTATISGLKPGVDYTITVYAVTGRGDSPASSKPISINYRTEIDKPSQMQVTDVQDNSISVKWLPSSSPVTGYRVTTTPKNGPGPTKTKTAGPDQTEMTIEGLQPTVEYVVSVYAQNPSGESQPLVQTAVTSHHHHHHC

Broadly, the Kd is the free concentration of one partner at which half of the binding sites on the other are occupied at equilibrium, for simple one-to-one binding. High values mean weaker binding, low ones tighter binding. For the molecule WNAPQPSHISKYILRWRPK [FN630-648 (WNAPQPSHISKYILRWRPK)], in [1], binding was put at a Kd of 340 nM.
On to KNSVGRWKEATIPGHLNSYT [FN648-667 (KNSVGRWKEATIPGHLNSYT)], for which the binding result in [1] is “no binding”.
In the case of B1, the values for the Kd in [2] and in assay [3] were 130 nM and 250 nM, respectively. For the same molecule, the binding result with EGF, with TGF-α and with FGF-1 was “no binding” in each case.
As for QLISIQQYGHQEVTRFDFTTTSTST (Synthetic peptide) [peptide 2 (QLISIQQYGHQEVTRFDFTTTSTST)], the Kd is 270 nM in assay [2] and 110 nM in [4]. Further, the binding result with EGF, in the assay with TGF-α and with FGF-1 was “no binding” throughout.
Regarding B2, the Kd in assay [5] came out at 0.6 nM. Moreover, the binding result (in assay [6]; in assay [7]; with FNIII1-11) was “no binding” throughout.
Take YILRWRPKNSVGRW [FN641-654 (YILRWRPKNSVGRW)]: the binding result in [1] is given as “no binding”.
With QPSHISKYILRWRPK [FN634-648 (QPSHISKYILRWRPK)], the Kd in [2] was 440 nM; in assay [1] it was 450 nM.
In turn, ILRWRPKNSVGRWK gave a Kd in assay [2] of 400 nM.
QPSVGQQMIFEEHGFRRTTPPTTAT (Synthetic peptide) [peptide 4 (QPSVGQQMIFEEHGFRRTTPPTTAT)]: the Kd in [2] amounted to 100 nM. Besides, the binding result with EGF, in the assay with TGF-α and with FGF-1 was “no binding” throughout.
As to QPSHISKY [FN634-641 (QPSHISKY)], the binding result in assay [1] is reported as “no binding”.
Regarding B3, the Kd amounted to 75 nM in the assay with FNIII1-7 [8]; 37 nM in the assay with FNIII1-2 [9]; 21 nM in [11]; 6.8 nM in [12]; 35 nM with FNIII12-14 [13]; 75 nM with FNIII12-13. Also, the Kd is 9.1 nM in the assay with FNIII1-2 [14]; 100 nM with FNIII1-7 [15]; 17 nM in [16]; 49 nM with intact fibronectin [18]; 55 nM in the assay with FNIII12-14 [19]. Further, the binding result (in the assay with FNIII3-6 [10]; in [7]; in assay [17]) was “no binding” each time.
Consider B4, for which the binding result (in [5]; with FNIII1-7 [20]; in assay [21]; with FNIII1; with FNIII3-6 [22]; in [23]) was “no binding” throughout. Besides, the binding result (with FNIII12-14 [24]; in assay [7]; in the assay with intact fibronectin [25]) was “no binding” each time.
On to NGQTPIQRTIKPDVRSYTITGLQPGT (Synthetic peptide) [peptide 3 (NGQTPIQRTIKPDVRSYTITGLQPGT)], for which the Kd in [2] amounted to 140 nM. The binding result with EGF, with TGF-α and in the assay with FGF-1 was “no binding” each time.
